Laboratory results reported in a protein production outcome set (Wang et al. 2014).

Experiment: label from the status in PepcDB records

Sequence	protein production
IVPDAQDLGKSYGIRPSFIIAQAALDSDFGEKILANKYHNLFGLLAEPGTPSITLNDSSTGKKQEKQFTHYKSWKYSMYDYLAHIKSGATGKKDSYTIMVSVKNPKTLVQKLQDSGFDNDKKYAKKMTEIIDLYDLTRYDK	failed
MKKIIAITGFAMLGGGLREGLSLLVTWPQHFWITCLINIVGAFVLSLITNLLPARLPVSEDIVIGMSVGFVGSFTTFSTFTFETLQSFQSGHSVLALSYVAASLGLGLLAGLAGNFLSTYWLPKEEF	failed
MSKFKSHNSNNTKQTINKHALIFGLISVFLSGIGFTIISPVIPFLVQPYINNPGNQAIIVTLLTSVYAICMFFSAPGLGALSDKYGRRPVLLVCLLGSSIGYLIFGIGGALWVLFAGRIIDGITGGTISTIFAYFADIIPENERTKYFGWVSAVVGVGTIIGPTLGGLLAKFGYSVPLYFGAIITLLNVVYGFFFMPESLDKNIRLKEITFVRLNPFTQLANLLSIKSLKRLLISAFLLWIPNGSLQAVFSQFTIDTFSWKPAIIGLMFSIMGFQDIISQSLIMPKLLVKLSDKYIAILGMISEVIGYSLIAASALFYFYPLFIAGMFIFGFGDSIFGPSFNGMLSKSVDSSEQGRIQGGSQSIQALARMIGPIIGGQIYVSLGHATPAFMGIVLITVAIPVLYKNIHINI	failed
MSNDVDLIKRLGPSAMDQIMLYLAFSAMRTSGHRHGAFLDAAATAAKCAIYMTYLEQGQNLRMTGHLHHLEPKRVKAIVEEVRQALTEGKLLKMLGSQEPRYLIQFPYVWMEKYPWRPGRSRIPGTSLTSEEKRQIEQKLPSNLPDAHLITSFEFLELIEFLHKRSQEDLPKEHQMPLSEALAEHIKRRLLYSGTVTRIDSPWGMPFYALTRPFYAPADDQERTYIMVEDTARFFRMMRDWAEKRPNTMRVLEELDILPEKMQQAKDELDEIIRAWADKYHQDDGVPVVLQMVFGKKED	not failed
MIFDTEPDAMTLAPDDKPQDRHFDWSGVPIDLGGMEPLEQIARLLCHALVAPAAALTITEGGRLRVLAARGISSSHVEQAMELCKQVPPAPNGVTELIEHATLAQIKLGDAAFPGLPARFIACVPVGAPQTGISGTLCVIDTRERRLASQEHQQLLMFANVAAAQLELQFGAGRREPHSGLLNTRQLQSDLDALAFGSHSVPTIAAFIEVYDTQAANEARQALGMQPLEELVRHASYVLTRALRGKATVYHVASMRFAFFLLNSAPDEMEDLLLDLRDMLHKPVDAAGVPMSLTFHAGVVRFAPQQPDTNDVMRKGLVALGDAINNHAIVCWYSASHDDAIQRSYRLALDAEQALDAGDFRLVFQPRIDLEDLSVTGFEALLRWNHASMGPIGPDEFIPLFEKTALMCTVTNWVIESALVQLAKWRAQGLDFSMSINLSSRDFGNINLAADVINRCKDLAIPTTCIELEITEGRWLRSNVEAVPRLRALRDAGVSVAIDDFGTGYSNFGYLTELPVNVLKLDRSLVTGIATKTGMQMRAEAVVRLANALGYRTVAEGIEHADEIALLRSWGCDEAQGYLLAKPMEAHLVADYVKQTAALRRLP	failed
GSSGSSGHADEVWPGLYLGDQDMANNRRELRRLGITHVLNASHSRWRGTPEAYEGLGIRYLGVEAHDSPAFDMSIHFQTAADFIHRALSQPGGKILVHCAVGVSRSATLVLAYLMLYHHLTLVEAIKKVKDHRGIIPNRGFLRQLLALDRRLRQGLEA	not failed
MTFSQMILNLQNYWQEQGCAIMQPYDMPAGAGTFHPATFLRSLGKKPWAAAYVAPSRRPTDGRYGENPNRLGAYYQFQVLIKPSPDNIQELYLKSLENLGFDLKSHDIRFVEDNWESPSLGAWGLGWEVWLDGMEVTQFTYFQQVGGIAVDLVSAEITYGLERIAMYLQNVDNVYDIVWSEFNGEKIKYADVHKQSEYEFSKYNFEVSDVKILNEQFENSYKECKNILEQGLALPAYDYCMLAAHTFNLLDARGAISVAQRQDYMLKIRELSKNCAEIYKKNLNEAE	not failed
MPYFYVFLLLLTSLLWGGNFVVGKSLVDHASPMTLTNLRWMIAIVCLLPMVWFKEKKILPPRTAILPLILMGISGVALFNIFQFLALEKTSATNVGLISTLNAISIALFSVLFLKEKVNTLQILSMILSFFGVILVLLKGDFSLLFSLHFNSGDLWMIAAVCIWGIYSVCSKWATKTTTPLMATLYSGIFGVILLLPFNIGSFTVSNINTSFITSLLYTGLISTVLCMVFWNIGVQKLGATTSGIFLNFNPIFTAILAFIFLGEELTWIQILGTIVVVTGCYLFSHFKTVAVQPVRPLMRKHS	failed
